According to IntAct's records for PubMed 12829691:

B1: E3 ubiquitin-protein ligase CBL-B (Homo sapiens), Q13191 (parent)
chain: MANSMNGRNPGGRGGNPRKGRILGIIDAIQDAVGPPKQAAADRRTVEKTWKLMDKVVRLCQNPKLQLKNSPPYILDILPDTYQHLRLILSKYDDNQKLAQLSENEYFKIYIDSLMKKSKRAIRLFKEGKERMYEEQSQDRRNLTKLSLIFSHMLAEIKAIFPNGQFQGDNFRITKADAAEFWRKFFGDKTIVPWKVFRQCLHEVHQISSGLEAMALKSTIDLTCNDYISVFEFDIFTRLFQPWGSILRNWNFLAVTHPGYMAFLTYDEVKARLQKYSTKPGSYIFRLSCTRLGQWAIGYVTGDGNILQTIPHNKPLFQALIDGSREGFYLYPDGRSYNPDLTGLCEPTPHDHIKVTQEQYELYCEMGSTFQLCKICAENDKDVKIEPCGHLMCTSCLTAWQESDGQGCPFCRCEIKGTEPIIVDPFDPRDEGSRCCSIIDPFGMPMLDLDDDDDREESLMMNRLANVRKCTDRQNSPVTSPGSSPLAQRRKPQPDPLQIPHLSLPPVPPRLDLIQKGIVRSPCGSPTGSPKSSPCMVRKQDKPLPAPPPPLRDPPPPPPERPPPIPPDNRLSRHIHHVESVPSRDPPMPLEAWCPRDVFGTNQLVGCRLLGEGSPKPGITASSNVNGRHSRVGSDPVLMRKHRRHDLPLEGAKVFSNGHLGSEEYDVPPRLSPPPPVTTLLPSIKCTGPLANSLSEKTRDPVEEDDDEYKIPSSHPVSLNSQPSHCHNVKPPVRSCDNGHCMLNGTHGPSSEKKSNIPDLSIYLKGDVFDSASDPVPLPPARPPTRDNPKHGSSLNRTPSDYDLLIPPLGEDAFDALPPSLPPPPPPARHSLIEHSKPPGSSSRPSSGQDLFLLPSDPFVDLASGQVPLPPARRLPGENVKTNRTSQDYDQLPSCSDGSQAPARPPKPRPRRTAPEIHHRKPHGPEAALENVDAKIAKLMGEGYAFEEVKRALEIAQNNVEVARSILREFAFPPPVSPRLNL

Variants of: B1
Conditions: with sh3k1_human SH3KBP1, Q96B97
Sequence of sh3k1_human SH3KBP1, Q96B97 (Q96B97 whole entry): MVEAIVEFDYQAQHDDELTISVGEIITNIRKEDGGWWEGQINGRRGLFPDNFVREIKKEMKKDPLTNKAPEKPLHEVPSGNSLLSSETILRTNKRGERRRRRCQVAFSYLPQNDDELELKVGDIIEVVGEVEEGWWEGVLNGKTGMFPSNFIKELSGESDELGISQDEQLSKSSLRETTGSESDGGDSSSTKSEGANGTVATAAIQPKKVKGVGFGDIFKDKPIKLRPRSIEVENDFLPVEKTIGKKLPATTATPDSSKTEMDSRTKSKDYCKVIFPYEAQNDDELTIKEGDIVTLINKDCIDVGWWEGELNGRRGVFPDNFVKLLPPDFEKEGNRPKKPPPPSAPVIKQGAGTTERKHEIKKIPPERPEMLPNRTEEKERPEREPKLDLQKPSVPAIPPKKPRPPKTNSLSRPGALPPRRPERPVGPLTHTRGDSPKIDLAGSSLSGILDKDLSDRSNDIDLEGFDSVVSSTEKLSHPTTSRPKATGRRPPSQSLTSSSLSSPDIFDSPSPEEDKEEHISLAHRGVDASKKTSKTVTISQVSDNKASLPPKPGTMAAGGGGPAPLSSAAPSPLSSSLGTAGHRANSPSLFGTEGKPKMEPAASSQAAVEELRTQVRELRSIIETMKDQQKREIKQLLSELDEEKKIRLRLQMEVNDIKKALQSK

Row | effect of a mutation on the interaction | Variant
1 | decreasing interaction | R911A
